Test results from paper PMC6303335.

Molecular target: VACV B18
Assay: SPR

With human IFNα-2b the koff was 0.000225 s⁻¹.
